Tests used:
Experiment in all cases: SEC-MALS + native gel or EMSA; static light scattering (DynaPro, Wyatt) after Superdex 200, 100 uL at >1 mg/mL in 10 mM PBS pH 7.4, flow 0.45 mL/min, LS, UV and dRI detection; 10% native-PAGE, 1 umol protein loaded; oligomeric state in solution
[1] = biological target: rFIP-nha N5+39A double glycosylation mutant, expressed in P. pastoris (Nectria haematococca)
[2] = biological target: rFIP-nha N5A glycosylation mutant, expressed in P. pastoris (Nectria haematococca)
[3] = biological target: rFIP-nha N39A glycosylation mutant, expressed in P. pastoris (Nectria haematococca)
[4] = biological target: rFIP-nha wild-type (fungal immunomodulatory protein from Nectria haematococca), expressed in P. pastoris (Nectria haematococca)

**Q.** With “rFIP-nha N5+39A double glycosylation mutant, expressed in P. pastoris (natural protein)” as the substance, how does the stoichiometry N [1] read?
**A.** 4

**Q.** For “rFIP-nha N5A glycosylation mutant, expressed in P. pastoris (natural protein)”, which stoichiometry N [2] is on record?
**A.** 4

**Q.** With “rFIP-nha N39A glycosylation mutant, expressed in P. pastoris (natural protein)” as the substance, how does the stoichiometry N [3] read?
**A.** 4

**Q.** “rFIP-nha wild-type (fungal immunomodulatory protein from Nectria haematococca), expressed in P. pastoris (natural protein)” was tested. Which stoichiometry N [4] did it give?
**A.** 4
